Assay results from publication PMC2779590 (2009).

Biological target: α5β1 integrin (Homo sapiens, UniProt P08648)
Test: SPR

α5β1 integrin, sequence (P08648 42-1049, chain 1 of 2): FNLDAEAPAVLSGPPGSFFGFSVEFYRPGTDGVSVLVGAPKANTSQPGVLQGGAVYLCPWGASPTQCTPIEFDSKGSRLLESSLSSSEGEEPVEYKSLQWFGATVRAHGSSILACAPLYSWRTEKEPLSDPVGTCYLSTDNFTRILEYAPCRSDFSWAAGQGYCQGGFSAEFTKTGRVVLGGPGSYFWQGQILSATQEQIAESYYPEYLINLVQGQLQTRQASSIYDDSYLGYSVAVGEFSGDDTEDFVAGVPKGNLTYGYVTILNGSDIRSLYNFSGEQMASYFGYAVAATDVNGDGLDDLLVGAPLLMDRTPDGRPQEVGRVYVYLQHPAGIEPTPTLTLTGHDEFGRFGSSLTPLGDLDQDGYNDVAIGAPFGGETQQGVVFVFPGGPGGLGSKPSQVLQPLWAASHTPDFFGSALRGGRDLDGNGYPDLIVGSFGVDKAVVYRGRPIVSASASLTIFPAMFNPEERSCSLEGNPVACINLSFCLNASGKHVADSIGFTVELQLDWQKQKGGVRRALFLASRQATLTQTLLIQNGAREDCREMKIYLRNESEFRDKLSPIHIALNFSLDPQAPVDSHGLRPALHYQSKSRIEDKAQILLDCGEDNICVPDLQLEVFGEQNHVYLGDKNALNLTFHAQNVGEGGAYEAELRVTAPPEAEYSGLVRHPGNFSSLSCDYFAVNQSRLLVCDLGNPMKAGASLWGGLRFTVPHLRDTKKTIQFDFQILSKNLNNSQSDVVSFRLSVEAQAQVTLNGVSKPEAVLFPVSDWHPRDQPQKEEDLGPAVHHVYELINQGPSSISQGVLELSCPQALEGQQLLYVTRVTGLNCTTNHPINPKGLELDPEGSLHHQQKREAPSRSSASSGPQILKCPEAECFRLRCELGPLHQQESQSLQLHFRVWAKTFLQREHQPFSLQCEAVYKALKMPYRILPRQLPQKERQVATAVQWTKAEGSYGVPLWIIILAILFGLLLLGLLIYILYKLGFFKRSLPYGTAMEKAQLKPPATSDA
α5β1 integrin, sequence (chain, as listed by the source, chain 2 of 2): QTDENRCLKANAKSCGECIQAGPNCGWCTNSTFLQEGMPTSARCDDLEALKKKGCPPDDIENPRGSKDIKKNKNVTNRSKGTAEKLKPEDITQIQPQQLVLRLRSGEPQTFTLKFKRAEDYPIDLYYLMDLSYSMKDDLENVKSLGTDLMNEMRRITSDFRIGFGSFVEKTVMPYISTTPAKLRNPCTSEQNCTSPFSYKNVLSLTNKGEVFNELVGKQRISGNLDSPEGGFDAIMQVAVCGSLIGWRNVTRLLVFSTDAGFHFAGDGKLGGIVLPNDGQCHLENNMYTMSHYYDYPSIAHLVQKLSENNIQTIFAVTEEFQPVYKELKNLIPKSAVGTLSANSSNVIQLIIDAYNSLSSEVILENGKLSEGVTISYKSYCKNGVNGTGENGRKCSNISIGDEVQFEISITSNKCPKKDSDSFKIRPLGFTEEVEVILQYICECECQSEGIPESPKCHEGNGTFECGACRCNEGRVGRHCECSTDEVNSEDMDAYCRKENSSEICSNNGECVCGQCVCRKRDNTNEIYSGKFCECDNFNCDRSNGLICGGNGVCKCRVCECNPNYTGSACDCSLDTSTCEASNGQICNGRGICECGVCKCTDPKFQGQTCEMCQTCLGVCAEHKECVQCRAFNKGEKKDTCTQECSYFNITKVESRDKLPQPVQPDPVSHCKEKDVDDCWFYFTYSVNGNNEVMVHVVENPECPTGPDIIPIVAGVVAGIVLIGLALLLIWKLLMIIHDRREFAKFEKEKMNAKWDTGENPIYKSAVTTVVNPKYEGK

B1: CagA (protein)
chain: MTNETIDQTRTPDQTQSQTAFDPQQFINNLQVAFIKVDNVVASFDPDQKPIVDKNDRDNRQAFDGISQLREEYSNKAIKNPTKKNQYFSDFIDKSNDLINKDNLIDVESSTKSFQKFGDQRYQIFTSWVSHQKDPSKINTRSIRNFMENIIQPPIPDDKEKAEFLKSAKQSFAGIIIGNQIRTDQKFMGVFDESLKERQEAEKNGGPTGGDWLDIFLSFIFNKKQSSDVKEAINQEPVPHVQPDIATTTTDIQGLPPEARDLLDERGNFSKFTLGDMEMLDVEGVADIDPNYKFNQLLIHNNALSSVLMGSHNGIEPEKVSLLYAGNGGFGDKHDWNATVGYKDQQGNNVATLINVHMKNGSGLVIAGGEKGINNPSFYLYKEDQLTGSQRALSQEEIRNKVDFMEFLAQNNTKLDNLSEKEKEKFQNEIEDFQKDSKAYLDALGNDRIAFVSKKDTKHSALITEFNNGDLSYTLKDYGKKADKALDREKNVTLQGSLKHDGVMFVDYSNFKYTNASKNPNKGVGATNGVSHLEAGFNKVAVFNLPDLNNLAITSFVRRNLENKLTAKGLSLQEANKLIKDFLSSNKELAGKALNFNKAVAEAKSTGNYDEVKKAQKDLEKSLRKREHLEKEVEKKLESKSGNKNKMEAKAQANSQKDEIFALINKEANRDARAIAYTQNLKGIKRELSDKLEKISKDLKDFSKSFDEFKNGKNKDFSKAEETLKALKGSVKDLGINPEWISKVENLNAALNEFKNGKNKDFSKVTQAKSDLENSVKDVIINQKVTDKVDNLNQAVSVAKAMGDFSRVEQVLADLKNFSKEQLAQQAQKNEDFNTGKNSELYQSVKNSVNKTLVGNGLSGIEATALAKNFSDIKKELNEKFKNFNNNNNGLKNSTEPIYAKVNKKKTGQVASPEEPIYTQVAKKVNAKIDRLNQIASGLGGVGQAAGFPLKRHDKVDDLSKVGLSASPEPIYATIDDLGGPFPLKRHDKVDDLSKVGRSRNQELAQKIDNLNQAVSEAKAGFFGNLEQTIDKLKDSTKKNVMNLYVESAKKVPASLSAKLDNYAINSHTRINSNIQNGAINEKATGMLTQKNPEWLKLVNDKIVAHNVGSVSLSEYDKIGFNQKNMKDYSDSFKFSTKLNNAVKDIKSGFTHFLANAFSTGYYCLARENAEHGIKNVNTKGGFQKS
Kd: 0.15 nM
